Assay results published in patent US20060171955A1.

How the values were obtained:
monoclonal antibody 1129 [1] = experiment: competitive ELISA; soluble 248/404 F inhibits 1129 binding to plate-adsorbed A2 F
monoclonal antibody 1129 [2] = experiment: competitive ELISA; soluble 248/404 F inhibits 1129 binding to plate-adsorbed 248/404 F
monoclonal antibody 1129 [3] = experiment: competitive ELISA; soluble A2 F inhibits 1129 binding to plate-adsorbed A2 F
monoclonal antibody 1129 [4] = experiment: competitive ELISA; soluble A2 F inhibits 1129 binding to plate-adsorbed 248/404 F

Substance	Percent Inhibition (monoclonal antibody 1129 [1])	Percent Inhibition (monoclonal antibody 1129 [2])	Percent Inhibition (monoclonal antibody 1129 [3])	Percent Inhibition (monoclonal antibody 1129 [4])
purified RSV fusion (F) protein from the cold-passaged, temperature-sensitive mutant A2 strain cpts-248/404 (PFP-3) (from UniProt P03420 26-574)	94.7%	95.9%	–	–
purified RSV fusion (F) protein from the parent A2 strain (PFP-2) (from UniProt P03420 26-574)	–	–	> 99%	> 99%
